Test results taken from patent US20050186646.

How the values were obtained:
[1] = target: T1, recombinant double-tagged VWF-A2 peptide
T1 chain: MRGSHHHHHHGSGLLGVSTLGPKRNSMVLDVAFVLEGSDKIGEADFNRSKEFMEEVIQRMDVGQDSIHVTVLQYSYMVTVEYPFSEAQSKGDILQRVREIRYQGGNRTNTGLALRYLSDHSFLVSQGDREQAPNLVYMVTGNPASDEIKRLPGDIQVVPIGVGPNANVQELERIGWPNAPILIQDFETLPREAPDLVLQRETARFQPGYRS

[2] = target: T2, recombinant single-tagged VWF-A2 peptide
T2 chain: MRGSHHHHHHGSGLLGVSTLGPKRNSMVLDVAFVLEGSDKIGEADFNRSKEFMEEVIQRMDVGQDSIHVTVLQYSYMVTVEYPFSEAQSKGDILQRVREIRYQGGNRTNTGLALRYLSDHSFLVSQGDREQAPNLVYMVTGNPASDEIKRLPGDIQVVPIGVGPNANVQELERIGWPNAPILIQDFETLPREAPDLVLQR

B1: ADAMTS-13 (protein)
chain: AAGGILHLELLVAVGPDVFQAHQEDTERYVLTNLNIGAELLRDPSLGAQFRVHLVKMVILTEPEGAPNITANLTSSLLSVCGWSQTINPEDDTDPGHADLVLYITRFDLELPDGNRQVRGVTQLGGACSPTWSCLITEDTGFDLGVTIAHEIGHSFGLEHDGAPGSGCGPSGHVMASDGAAPRAGLAWSPCSRRQLLSLLSAGRARCVWDPPRPQPGSAGHPPDAQPGLYYSANEQCRVAFGPKAVACTFAREHLDMCQALSCHTDPLDQSSCSRLLVPLLDGTECGVEKWCSKGRCRSLVELTPIAAVHGRWSSWGPRSPCSRSCGGGVVTRRRQCNNPRPAFGGRACVGADLQAEMCNTQACEKTQLEFMSQQCARTDGQPLRSSPGGASFYHWGAAVPHSQGDALCRHMCRAIGESFIMKRGDSFLDGTRCMPSGPREDGTLSLCVSGSCRTFGCDGRMDSQQVWDRCQVCGGDNSTCSPRKGSFTAGRAREYVTFLTVTPNLTSVYIANHRPLFTHLAVRIGGRYVVAGKMSISPNTTYPSLLEDGRVEYRVALTEDRLPRLEEIRIWGPLQEDADIQVYRRYGEEYGNLTRPDITFTYFQPKPRQAWVWAAVRGPCSVSCGAGLRWVNYSCLDQARKELVETVQCQGSQQPPAWPEACVLEPCPPYWAVGDFGPCSASCGGGLRERPVRCVEAQGSLLKTLPPARCRAGAQQPAVALETCNPQPCPARWEVSEPSSCTSAGGAGLALENETCVPGADGLEAPVTEGPGSVDEKLPAPEPCVGMSCPPGWGHLDATSAGEKAPSPWGSIRTGAQAAHVWTPAAGSCSVSCGRGLMELRFLCMDSALRVPVQEELCGLASKPGSRREVCQAVPCPARWQYKLAACSVSCGRGVVRRILYCARAHGEDDGEEILLDTQCQGLPRPEPQEACSLEPCPPRWKVMSLGPCSASCGLGTARRSVACVQLDQGQDVEVDEAACAALVRPEASVPCLIADCTYRWHVGTWMECSVSCGDGIQRRRDTCLGPQAQAPVPADFCQHLPKPVTVRGCWAGPCVGQGTPSLVPHEEAAAPGRTTATPAGASLEWSQARGLLFSPAPQPRRLLPGPQENSVQSSACGRQHLEPTGTIDMRGPGQADCAVAIGRPLGEVVTLRVLESSLNCSAGDMLLLWGRLTWRKMCRKLLDMTFSSKTNTLVVRQRCGRPGGGVLLRYGSQLAPETFYRECDMQLFGPWGEIVSPSLSPATSNAGGCRLFINVAPHARIAIHALATNMGAGTEGANASYILIRDTHSLRTTAFHGQQVLYWESESSQAEMEFSEGFLKAQASLRGQYWTLQSWVPEMQDPQSWKGKEGT
cleavage of double-tagged VWF-A2 peptide, ELISA (loss of Tag-100 signal) [1]: the specific cleavage activity by ADAMTS-13 on the VWF-A2 peptide was also demonstrated using three different dilutions of partially isolated ADAMTS-13 (275 µg/mL of total protein) (FIG. 5B) | cleavage of double-tagged VWF-A2 peptide, immunoblot [1]: The cleavage of the double-tagged VWF-A2 peptide by ADAMTS-13 was efficiently detected by immunoblotting | cleavage of VWF-A2 protein, immunoblot (16 kDa band) [2]: Healthy plasma (FIG. 2, lane 1), and partially isolated ADAMTS-13 (FIG. 2, lane 3) produced the expected band of 16 kDa | cleavage of recombinant single-tagged VWF-A2 (16 kDa band) [2]: After one hour incubation, proteolysis by plasma from a healthy individual and the partially isolated enzyme produced the expected 16 kD band corresponding to the sequence 1481-1605 of SEQ ID NO:8 plus the 12 amino acid residues from the His-tag
